Test results: PMC8902617

Target: filamentous actin (rabbit skeletal muscle actin) (UniProt P68135)
Experiment: high-speed actin cosedimentation
Conditions: F-actin 0-25 µM; parent: 93.30 ± 3.05

other: % max (maximal binding, % protein in the pellet): 88.6%
Substance: ASAP1 BAR-PH (residues 1-431), His6-tagged, wild type (from UniProt Q9QWY8) K153A; K156A; K159A
